For one substance, rate of phosphorylation of eIF2α (2 µM) by GCN2 in vitro, with wildtype ribosomes against none results are on record in article PMC6919976.

The target in this experiment is ribosomes isolated from wildtype CHO cells (hamster (endogenous in CHO)).

In turn, “GCN2, StrepII-tagged, purified from Sf9 cells (from UniProt Q9P2K8 1-1649) (enzyme)” registered a rate of phosphorylation of eIF2α (2 µM) by GCN2 in vitro, with wildtype ribosomes against none of 10 fold.
